Measured values published in patent EP0651783B1, “ALKALINE PHOSPHATASE ENZYME HAVING IMPROVED SPECIFIC ACTIVITY FOR USE IN INDICATOR REAGENTS” (ABBOTT LABORATORIES, priority 1992, dated 1994).

Test system: O=[N+]([O-])c1ccc(OP(=O)(O)O)cc1
Assay: Alkaline phosphatase kinetic constants (substrate hydrolysis)
Type: biochemical, Escherichia coli
Conditions: other: Table 1; substrate not named, e.g. p-nitrophenyl phosphate
Method: The analyses for specific activity and temperature stability were performed on highly purified protein material. In brief, the purification process involved the release of the periplasmic protein by the formation of spheroplasts, ammonium sulphate precipitation and chromatofocusing chromatography. […] Temperature stability was measured by monitoring the decay of enzyme activity at different temperatures.

In the case of “E. coli alkaline phosphatase variant pMA116, Lys^328 > Arg / Val^99 > Ala (Escherichia coli K-12; K350R/V121A)”, the Km was 74 µM.
